Source: the supplement of paper PMC10126150
± gives the standard deviation of the averaged measurements.

Tested on: ATP
Assay: switch fluorescence ratio, 500 uM ATP over buffer (Cy3 cluster intensity, sum of 5 cycles each) (fold (ratio)); higher = stronger signal-on switching upon ATP binding; sequences stand for … in TCGTCGGCAGCGTCAGATGTGTATAAGAGACAGTTTTTTTTTTTTTTTTTTTTTTTTT…TC
Settings: aptamer strand: ATP DNA aptamer (quencher-CACCTGGGGGAGTATTGCGGAGGAAGG + anchor), 100 nM annealed; ATP concentration: 500 uM
In short: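 Per cluster, summed Cy3 intensity from the target cycles was divided by that from the buffer cycles to give the fluorescence ratio, then averaged per switch-domain sequence. Clusters outside 100-1000 RFU were excluded. The Cy3-labelled switching-strand clusters, on a modified Illumina MiSeq flow-cell, were annealed to 100 nM quencher-labelled ATP aptamer and imaged in selection buffer, then after 15 min with 500 uM ATP at 22 °C, for five cycles with NaOH stripping and re-annealing between them.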
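Further: ATP exposure 15 min at 22 °C before imaging.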

Sequence	switch fluorescence ratio
CCGTGCGTAT	1.3 ± 0.062
GTTCGGAATT	1.031 ± 0.0013
GAGGGATATT	1.02 ± 0.022
TTTTGTAAGC	1.04 ± 0.083
TAAATGGTTG	0.9863 ± 0.0094
AAACGCCGAA	0.986 ± 0.062
TCGTTCGTCT	0.973 ± 0.039
TCAGTGGACG	0.996 ± 0.072
AGTTCGTTTT	0.987 ± 0.019
CCGGATAGTG	1.03 ± 0.026
CGGCACAGCC	1.05 ± 0.057
GAAGTGCGGA	0.9795 ± 0.0061
ATGTGGTCTG	0.9777 ± 0.0014
CTTTGGAATA	1.07 ± 0.041
TCGCCATTGT	1.02 ± 0.03
GTCGAGGGTC	0.944 ± 0.03
AAAGCGGACT	1.044 ± 0.0089
TACAGCACTG	1.29 ± 0.15
AAAAATTGTG	1.01 ± 0.046
CCTAACGCAG	2.32 ± 0.43
GACTGAAAAA	0.981 ± 0.14
TTAGGAGCTT	1 ± 0.014
TTCTCGTGGC	0.96 ± 0.029

Sequence	switch fluorescence ratio
GGGGTAGATC	1.05 ± 0.013
AGGATTTATG	0.962 ± 0.021
CAGGGCGTTT	1.01 ± 0.028
TTTTTTTTAG	1.07 ± 0.27
CGGCGGATTC	1.03 ± 0.019
AATGTTAGAA	0.99 ± 0.05
TGAGAGGTGG	1 ± 0.036
GTTGAGGGGG	1.01 ± 0.047
TGAAAGAGGC	0.999 ± 0.014
AAGTGTTAGC	0.995 ± 0.022
GGTGGAGTTT	0.987 ± 0.015
TGGTGTGGGG	0.993 ± 0.021
TACGGGGAGT	0.998 ± 0.026
ATTTGAGGGT	0.986 ± 0.021
AAAAAAGGTG	1.16 ± 0.22
GATGGATTCG	1.01 ± 0.026
TGAAGTACTT	1.06 ± 0.011
AAAGAGCAAT	1.79 ± 1.1
CGATCAAAAC	1.26 ± 0.31
CGGTTCAGTT	1.036 ± 0.0022
TTGTTTTCAC	1.28 ± 0.4
ATTAGTGTTT	0.976 ± 0.027
GGGGTTTCAG	1.02 ± 0.012

Sequence	switch fluorescence ratio
ACTTACAGCT	1.19 ± 0.017
AGGGAGGCTC	1 ± 0.057
GGGGGGAGTA	1.01 ± 0.056
TTCCGAGGG	1.102 ± 0.011
CGAAAATTCA	1.02 ± 0.0077
GCCGCGGGAA	1 ± 0.051
GCAAAAAAAC	1.02 ± 0.067
TTGGCTAGTT	1 ± 0.029
TTTGGCTGTA	0.97 ± 0.012
ATACGAACGG	1.48 ± 0.015
CCATTCATAG	0.973 ± 0.022
AAAAGGGGGA	1.02 ± 0.022
ATAAATCGAT	1.023 ± 0.0018
AAAGTACTGG	1.19 ± 0.042
GAGATTCGCT	0.988 ± 0.014
TTAATTTTAT	0.991 ± 0.015
ATATTGTAGT	0.9969 ± 0.0089
TAACAGTGAG	0.964 ± 0.021
ACAGGGAAAT	0.994 ± 0.038
GTTATTTGCT	0.988 ± 0.02
ATCGGGGGGC	1 ± 0.055
AAGGAAGCTT	1.02 ± 0.1
TGATAAAACG	0.992 ± 0.041

Sequence	switch fluorescence ratio
GGGGTTTTTC	0.9786 ± 0.0085
TTACCTTTGG	1.005 ± 0.0087
GTTCTTTGT	0.9894 ± 0.0093
TGGGGGCGGC	1.046 ± 0.0061
TAGGAGAAGG	1.04 ± 0.036
AGAGGGGCGT	0.999 ± 0.033
GGGAAGACGC	0.978 ± 0.025
AAAGTGGGAT	1.03 ± 0.019
TTTAACAGGG	1.03 ± 0.069
GTTCGGGCAT	1.07 ± 0.026
GGGGGTGAAG	0.971 ± 0.016
GGTTTAGGTG	1.14 ± 0.059
GAAGTTCATG	1.03 ± 0.024
TAAAGGGAAG	1.01 ± 0.021
CTGTGGCAGC	1.033 ± 0.0099
TTATCATAGT	1.005 ± 0.0064
ACTAATTATT	1.03 ± 0.021
TTTCAAAAT	1.035 ± 0.0037
AAAGGAGAGC	0.973 ± 0.087
TGTTTATTCG	0.97 ± 0.034
TGATGGTGGC	0.997 ± 0.017
AATATAGTAT	0.998 ± 0.034
GGATTCTTAG	0.986 ± 0.049

Sequence	switch fluorescence ratio
ACTCTATACA	1.11 ± 0.088
TCAAATAATC	1.01 ± 0.03
ACGGTGAGGT	1.02 ± 0.016
AGATCGGTTT	1 ± 0.042
TCGGGGTTCT	1.01 ± 0.0064
GACGCTAAAG	1.08 ± 0.029
AAACTTTCTT	1.03 ± 0.021
GGGGGGGGAA	1.01 ± 0.063
GGCAGGTTTT	0.996 ± 0.035
ACACCAGCTA	0.9876 ± 0.0061
TTCATCGGGA	0.981 ± 0.055
CAAGTGTACG	1.01 ± 0.042
AACTAGACCT	1.42 ± 0.019
AGACAGCAGC	1.05 ± 0.011
GGTGATAGGG	0.98 ± 0.036
CCAGAACCGG	1.01 ± 0.0022
ATGCAGTGTG	1.02 ± 0.019
GCAGGGGACG	1.05 ± 0.015
TGTTTGACGT	1.03 ± 0.014
CATAACTTGG	1.011 ± 0.002
TACCATGCGG	1.023 ± 0.01
GGTTGTTGGA	0.999 ± 0.0057
CGATAAACGG	1.03 ± 0.022

Sequence	switch fluorescence ratio
ATGTTTGAGG	0.989 ± 0.029
CGTCGGGGG	0.982 ± 0.044
TGAGCGACTT	1.005 ± 0.0095
TATGGTGC	1.06 ± 0.015
CGTGGGGGGT	1.01 ± 0.018
GGAAATGGGC	0.97 ± 0.042
AGGAGACATA	1 ± 0.021
GGTGAGGGGT	0.997 ± 0.035
AAATGCAGGG	1.01 ± 0.055
AATAGAGGGA	0.977 ± 0.045
TTTGTGGTAT	1.03 ± 0.047
CGGTTACATT	1 ± 0.014
TTAAGCGGGA	1.01 ± 0.015
TCCTAGCGCC	2.02 ± 0.2
AGTGAAGCTG	0.996 ± 0.027
GTGGGGCGCC	1.01 ± 0.03
ACGGGGGTTG	1.03 ± 0.06
TGCAGGATGC	0.971 ± 0.027
TTTAAAAACC	1.01 ± 0.034
ACCGTTCACG	1.02 ± 0.031
AAGGCGGGGG	0.986 ± 0.016
CAAAGGATGA	0.988 ± 0.002
TGGCGGAATT	1.02 ± 0.02

Sequence	switch fluorescence ratio
AATCGGGTTG	1 ± 0.019
TCTTGTATGG	0.9906 ± 0.006
ATATTGGGCC	0.997 ± 0.017
AAAGAGGGT	0.986 ± 0.018
TCGTTTAGGA	0.974 ± 0.031
TTATCTAGGG	0.997 ± 0.041
ATTTGGTATT	0.992 ± 0.041
TAGTGAGGCT	0.996 ± 0.01
GGGAAACATG	0.979 ± 0.028
CGTTGCGAGT	0.9726 ± 0.009
GAGTTTAAGG	0.9978 ± 0.009
GGTACTTGTA	1 ± 0.016
ATTAAAATGG	1.02 ± 0.017
TGGAGCCAGG	1.08 ± 0.064
CAAGCGTTTC	1.06 ± 0.024
TTAGCCCTCA	0.981 ± 0.014
TTCTTTTCGT	0.979 ± 0.041
TTAAGTTCGG	1.02 ± 0.013
TGAGGGGCTA	1.01 ± 0.049
